Experimental data as given in patent US20240158494A1 (Biogen, published 2024).

Tests used:
[1] = biological target: T1, human transferrin receptor 1 (TfR1), full length, expressed on cells (human, UniProt P02786 1-760); test: FACS on Ba/F3 cells, Fab supernatant
T1 construct: also called human TfR1; huTfR

[2] = biological target: T2, recombinant human TfR1 extracellular domain, His-tagged (human, UniProt P02786 89-760); test: SPR, TfR1 ECD-His captured, Fab injected, 1:1 fit
T2 construct: also called Human TfR1 ECD; human TfR1 ECD-His

[3] = biological target: T3, recombinant cynomolgus monkey TfR1 extracellular domain, His-tagged (cynomolgus monkey, UniProt Q5RDH6 87-760 (Pongo abelii entry)); test: SPR, TfR1 ECD-His captured, Fab injected, 1:1 fit
T3 construct: also called Cyno TfR1 ECD; cyno TfR1 ECD-His

[4] = biological target: T4, cynomolgus monkey transferrin receptor 1 (TfR1), full length, expressed on cells (cynomolgus monkey, UniProt Q5RDH6 1-760 (Pongo abelii entry)); test: FACS on Ba/F3 cells, Fab supernatant
T4 construct: also called cyno TfR1; cyTfR

Binder	EC50 [1] [nM]	Kd [2] [nM]	koff [2] [s⁻¹]	kon [2] [M⁻¹ s⁻¹]	Kd [3] [nM]	koff [3] [s⁻¹]	kon [3] [M⁻¹ s⁻¹]	EC50 [4] [nM]
TfR1 ANTIBODY-A HC-H0C hIgG1 Fab′(1C)/LC-L2 hKappa (Fab, V domains shown, also called ANTIBODY-A H0C/L2) VH: EVQLVESGGGLVQPGGSLRLSCAASGIDFSSSGYMCWVRQAPGKGLEWVGCIYTYSSNTYYAASVKGRFTISRDDSKNSLYLQMNSLKTEDTAVYYCARGTYGYTGYTYTMGYFSLWGQGTLVTVSS VL: ELDMTQSPSTLSASVGDRVTITCQASQNINSYLAWYQQKPGKAPKLLIYRASTLASGVPSRFSGSGSGTEFTLTISSLQPDDFATYYCQSYYYSGSSNYNAFGGGTKVEIKR	3.6	–	–	–	–	–	–	–
TfR1 ANTIBODY-A HC-H3C hIgG1 Fab′(1C)/LC-L2 hKappa (Fab, V domains shown, also called ANTIBODY-A H3C/L2) VH: QSLVESGGGLVQPGGSLRLSCKASGIDFSSSGYMCWVRQAPGKGLEWVGCIYTYSSNTYYASWAKGRFTISKDSKNSVYLQMNSLKTEDTAVYYCARGTYGYTGYTYTMGYFSLWGPGTLVTVSS VL: ELDMTQSPSTLSASVGDRVTITCQASQNINSYLAWYQQKPGKAPKLLIYRASTLASGVPSRFSGSGSGTEFTLTISSLQPDDFATYYCQSYYYSGSSNYNAFGGGTKVEIKR	1.6	2.4	0.00215	886000	8.3	0.0178	2.16e+06	10.4
TfR1 ANTIBODY-A HC-H1C hIgG1 Fab′(1C)/LC-L0 hKappa (Fab, V domains shown, also called ANTIBODY-A H1C/L0) VH: QSLVESGGGLVQPGGSLRLSCAASGIDFSSSGYMCWVRQAPGKGLEWVGCIYTYSSNTYYAASVKGRFTISRDDSKNSLYLQMNSLKTEDTAVYYCARGTYGYTGYTYTMGYFSLWGQGTLVTVSS VL: DIQMTQSPSTLSASVGDRVTITCQASQNINSYLAWYQQKPGKAPKLLIYRASSLESGVPSRFSGSGSGTEFTLTISSLQPDDFATYYCQSYYYSGSSNYNAFGGGTKVEIKR	2.5	–	–	–	–	–	–	15.5
TfR1 ANTIBODY-A HC-H0 hIgG1 Fab′(1C)/LC-L2 hKappa (Fab, V domains shown, also called ANTIBODY-A H0/L2) VH: EVQLVESGGGLVQPGGSLRLSCAASGIDFSSSGYMAWVRQAPGKGLEWVGAIYTYSSNTYYAASVKGRFTISRDDSKNSLYLQMNSLKTEDTAVYYCARGTYGYTGYTYTMGYFSLWGQGTLVTVSS VL: ELDMTQSPSTLSASVGDRVTITCQASQNINSYLAWYQQKPGKAPKLLIYRASTLASGVPSRFSGSGSGTEFTLTISSLQPDDFATYYCQSYYYSGSSNYNAFGGGTKVEIKR	> 70	–	–	–	–	–	–	–
TfR1 ANTIBODY-A HC-H2C hIgG1 Fab′(1C)/LC-L2 hKappa (Fab, V domains shown, also called ANTIBODY-A H2C/L2) VH: QSLVESGGGLVQPGGSLRLSCAASGIDFSSSGYMCWVRQAPGKGLEWVGCIYTYSSNTYYAASVKGRFTISKTSSTTVYLQMNSLKTEDTAVYYCARGTYGYTGYTYTMGYFSLWGQGTLVTVSS VL: ELDMTQSPSTLSASVGDRVTITCQASQNINSYLAWYQQKPGKAPKLLIYRASTLASGVPSRFSGSGSGTEFTLTISSLQPDDFATYYCQSYYYSGSSNYNAFGGGTKVEIKR	2.8	2.2	0.00213	952000	7.8	0.0137	1.76e+06	7.4
TfR1 ANTIBODY-A HC-H2 hIgG1 Fab′(1C)/LC-L2 hKappa (Fab, V domains shown, heavy chain derived; also called ANTIBODY-A H2/L2) VH: QSLVESGGGLVQPGGSLRLSCAASGIDFSSSGYMAWVRQAPGKGLEWVGAIYTYSSNTYYAASVKGRFTISKTSSTTVYLQMNSLKTEDTAVYYCARGTYGYTGYTYTMGYFSLWGQGTLVTVSS VL: ELDMTQSPSTLSASVGDRVTITCQASQNINSYLAWYQQKPGKAPKLLIYRASTLASGVPSRFSGSGSGTEFTLTISSLQPDDFATYYCQSYYYSGSSNYNAFGGGTKVEIKR	6.5	–	–	–	–	–	–	> 52

Results, then the binder that gave them:

EC50 [1] [nM]	Kd [2] [nM]	koff [2] [s⁻¹]	kon [2] [M⁻¹ s⁻¹]	Kd [3] [nM]	koff [3] [s⁻¹]	kon [3] [M⁻¹ s⁻¹]	EC50 [4] [nM]	Binder
> 74	–	–	–	–	–	–	–	TfR1 ANTIBODY-A HC-H1 hIgG1 Fab′(1C)/LC-L2 hKappa (Fab, V domains shown, also called ANTIBODY-A H1/L2) VH: QSLVESGGGLVQPGGSLRLSCAASGIDFSSSGYMAWVRQAPGKGLEWVGAIYTYSSNTYYAASVKGRFTISRDDSKNSLYLQMNSLKTEDTAVYYCARGTYGYTGYTYTMGYFSLWGQGTLVTVSS VL: ELDMTQSPSTLSASVGDRVTITCQASQNINSYLAWYQQKPGKAPKLLIYRASTLASGVPSRFSGSGSGTEFTLTISSLQPDDFATYYCQSYYYSGSSNYNAFGGGTKVEIKR
25	–	–	–	–	–	–	> 176	TfR1 ANTIBODY-A HC-H1 hIgG1 Fab′(1C)/LC-L0 hKappa (Fab, V domains shown, also called ANTIBODY-A H1/L0) VH: QSLVESGGGLVQPGGSLRLSCAASGIDFSSSGYMAWVRQAPGKGLEWVGAIYTYSSNTYYAASVKGRFTISRDDSKNSLYLQMNSLKTEDTAVYYCARGTYGYTGYTYTMGYFSLWGQGTLVTVSS VL: DIQMTQSPSTLSASVGDRVTITCQASQNINSYLAWYQQKPGKAPKLLIYRASSLESGVPSRFSGSGSGTEFTLTISSLQPDDFATYYCQSYYYSGSSNYNAFGGGTKVEIKR
3.6	–	–	–	–	–	–	~39	TfR1 ANTIBODY-A HC-H1C hIgG1 Fab′(1C)/LC-L2 hKappa (Fab, V domains shown, also called ANTIBODY-A H1C/L2) VH: QSLVESGGGLVQPGGSLRLSCAASGIDFSSSGYMCWVRQAPGKGLEWVGCIYTYSSNTYYAASVKGRFTISRDDSKNSLYLQMNSLKTEDTAVYYCARGTYGYTGYTYTMGYFSLWGQGTLVTVSS VL: ELDMTQSPSTLSASVGDRVTITCQASQNINSYLAWYQQKPGKAPKLLIYRASTLASGVPSRFSGSGSGTEFTLTISSLQPDDFATYYCQSYYYSGSSNYNAFGGGTKVEIKR
